Columns and labels:
[1] = molecular target: T1, human IL17C (human, UniProt Q9P0M4 19-197); assay: ELISA, purified chimeric human/mouse IgG2a on huIL-17C
T1 sequence: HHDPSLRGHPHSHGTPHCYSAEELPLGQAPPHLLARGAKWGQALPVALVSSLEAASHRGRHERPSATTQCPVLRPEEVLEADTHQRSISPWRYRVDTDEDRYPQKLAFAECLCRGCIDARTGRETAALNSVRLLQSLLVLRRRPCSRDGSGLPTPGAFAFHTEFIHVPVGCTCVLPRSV

[2] = molecular target: T2, mouse IL-17B (mouse, UniProt Q9QXT6 23-180, limits assumed); assay: ELISA, purified chimeric human/mouse IgG2a on msIL-17B
T2 sequence (looked up): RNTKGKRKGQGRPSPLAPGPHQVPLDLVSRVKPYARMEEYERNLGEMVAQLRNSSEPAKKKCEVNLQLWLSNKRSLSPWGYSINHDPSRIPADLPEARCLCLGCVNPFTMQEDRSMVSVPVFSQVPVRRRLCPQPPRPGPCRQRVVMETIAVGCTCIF

[3] = molecular target: T3, mouse IL17C (mouse, UniProt Q8K4C5 17-194, limits assumed, biotinylated in the receptor interaction, inhibition and serum stability assays (sites not given)); assay: ELISA, purified chimeric human/mouse IgG2a titrated on mouse IL17C, n=1-2
T3 construct: Bought recombinant protein; About 22 kDa reduced and about 40 kDa non-reduced on SDS-PAGE; Used plain (coated, ELISA) or biotinylated; also called biotinylated mouse IL17C; biotin-IL17C
T3 sequence (looked up): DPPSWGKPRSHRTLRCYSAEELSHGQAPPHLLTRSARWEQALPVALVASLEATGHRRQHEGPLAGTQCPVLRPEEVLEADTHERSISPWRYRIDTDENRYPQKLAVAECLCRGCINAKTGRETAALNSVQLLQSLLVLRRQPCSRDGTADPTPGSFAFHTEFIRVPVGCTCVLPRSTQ
Procedure: All purified chimeric human-mouse chimeric IgG2a antibodies were titrated on mouse IL17C for EC₅₀ determination in ELISA starting with a concentration of 100 nM. EC₅₀ values on mouse IL17C were determined in 1 to 3 independent experiments.

[4] = molecular target: T3, mouse IL17C; assay: ELISA on biotin-IL17C captured on avidin: chimeric IgG2a incubated 24 h at 37°C in mouse serum against freshly diluted IgG2a
Procedure: 96 well Maxisorp plates (Nunc; #442404) were coated with avidin at a concentration of 1 μg/ml in PBS overnight at 4° C. The next day, anti-IL17 chimeric IgG2a were incubated in mouse serum for 24 h at 37° C. at a final concentration 100 μg/mL. After the incubation step the antibodies were diluted 1:100 in LowCross buffer (Candor Bioscience; #100500). As a reference the same set of antibodies were freshly diluted in LowCross buffer+1% mouse serum and incubated for 30 min at RT. Avidin coated plates were incubated with blocking buffer (Superblock blocking buffer from Pierce, #37515) and subsequently 100 μL of 0.1 μg/mL biotin-IL17C in LowCross buffer was added to blocked wells. After a washing step a serial dilution of the serum-incubated and freshly diluted IgGs was added. Binding of IgGs was detected by anti-mouse-IgG2a POD conjugated detection antibody (diluted 1:5000 in LowCross buffer) using TMB One Component HRP as substrate. The reaction was stopped by adding 1M HCl and absorbance was measured at 450 nm.

[5] = molecular target: T3, mouse IL17C; assay: solution equilibrium titration (SET), ECL based, monovalent Fab fragment (Fab_FH format)
Procedure: Monovalent affinities of anti-IL17C antibodies were determined by solution equilibrium titration (SET) using Fab fragments. Affinity determination in solution was basically performed as described in the literature (Friquet et al., (1985) J. Immunol. Meth. 77: 305-19). In order to improve the sensitivity and accuracy of the SET method, it was transferred from classical ELISA to ECL based technology (Haenel et al. (2005) Anal Biochem. 339.1: 182-84). Binders were expressed and purified in Fab_FH format.

[6] = molecular target: T3, mouse IL17C; assay: mIL17C - mIL-17RE inhibition assay (MSD): human/mouse IgG2a pre-incubated with biotinylated mouse IL17C, binding to coated mouse IL17RE/Fc detected by Streptavidin-ECL
Procedure: To determine inhibitory activity of purified anti-IL17C human-mouse chimeric IgG2a in a mIL-17 RE interaction assay, Maxisorp™ 384 well MSD plates were coated with 30 μL mouse IL17RE/Fc at 75 ng/mL in PBS at 4° C. overnight. The next day 25 μL of a serial antibody dilution (concentrations from 0.001 to 100 nM) were pre-incubated for 30 min at RT with an equal volume of biotinylated mouse IL17C at 0.125 nM. After blocking of plates for 1 h with 2.5% BSA in PBST, preformed antibody-ligand complexes were added for 1 h to coated IL17RE/Fc and receptor binding was detected via Streptavidin-ECL using MSD Sector Imager.
To characterize the antibodies in human/mouse IgG2a format in more detail, for each candidate IC₅₀ values were determined in the IL-17 receptor E inhibition assay as described herein above in up to 4 independent experiments.

Binder | binding result [1] | binding result [2] | EC50 [3] [pM] | Coefficient of variation (Mouse Serum Stability Assay 24h/37°C) [4] [%] | binding result [5] | Kd [5] [pM] | IC50 [6] [pM]
MOR12741 (antibody, V domains shown, Tested as human-mouse chimeric IgG2a (human variable, mouse constant regions); Potential N-linked glycosylation sites were removed by site-directed mutagenesis) VH: QVQLVQSGAEVKKPGSSVKVSCKASGGTFSSYAISWVRQAPGQGLEWMGMIMPEVGMADYAQKFQGRVTITADESTSTAYMELSSLRSEDTAVYYCARDFIAVGSLEIWHYYYGLDVWGQGTLVTVSS VL: DIELTQPPSVSVSPGQTASITCSGDNIGEHYASWYQQKPGQAPVLVISYDNERPSGIPERFSGSNSGNTATLTISGTQAEDEADYYCQSWTSQKPDYVFGGGTKLTVLG | no binding | no binding | 470 | 13 | – | – | –
MOR12756 (antibody, V domains shown, Tested as human-mouse chimeric IgG2a (human variable, mouse constant regions); Potential N-linked glycosylation sites were removed by site-directed mutagenesis) VH: QVQLQQSGPGLVKPSQTLSLTCAISGDSVSDNSVAWNWIRQSPSRGLEWLGRIYYRSKWYNDYAVSVKSRITINPDTSKNQFSLQLNSVTPEDTAVYYCAREVLLFPARSYGTGMDVWGQGTLVTVSS VL: DIELTQPPSVSVSPGQTASITCSGDNLPSKYVHWYQQKPGQAPVLVIYDDNERPSGIPERFSGSNSGNTATLTISGTQAEDEADYYCGVADMPRQMKVFGGGTKLTVLG | – | – | – | – | no binding | – | –
MOR12757 (antibody, V domains shown, Tested as human-mouse chimeric IgG2a (human variable, mouse constant regions); Potential N-linked glycosylation sites were removed by site-directed mutagenesis) VH: EVQLLESGGGLVQPGGSLRLSCAASGFTFSSYAMSWVRQAPGKGLEWVSFISSGGSETFYADSVKGRFTISRDNSKNTLYLQMNSLRAEDTAVYYCARVSYIYYYSWVLFDVWGQGTLVTVSS VL: DIQMTQSPSSLSASVGDRVTITCRASQGIGTALNWYQQKPGKAPKLLIYDVSSLQSGVPSRFSGSGSGTDFTLTISSLQPEDFATYYCQQGLFLPFTFGQGTKVEIKR | – | – | – | – | no binding | – | –
MOR12759 (antibody, V domains shown, Tested as human-mouse chimeric IgG2a (human variable, mouse constant regions); Potential N-linked glycosylation sites were removed by site-directed mutagenesis) VH: EVQLVQSGAEVKKPGESLKISCKGSGYSFNNYWIAWVRQMPGKGLEWMGFIYPSNSATQYSPSFQGQVTISADKSISTAYLQWSSLKASDTAMYYCARDNEYSDSYFDVWGQGTLVTVSS VL: DIVLTQSPATLSLSPGERATLSCRASQIVSSYLAWYQQKPGQAPRLLIYDASSRATGIPARFSGSGSGTDFTLTISSLEPEDFAVYYCQQSVNFPTTFGQGTKVEIKR | no binding | no binding | 290 | 8.8 | – | 220 | 28
MOR12762 (antibody, V domains shown, Tested as human-mouse chimeric IgG2a (human variable, mouse constant regions); Potential N-linked glycosylation sites were removed by site-directed mutagenesis) VH: EVQLVQSGAEVKKPGESLKISCKGSGYSFNNYWIAWVRQMPGKGLEWMGFIYPSNSATQYSPSFQGQVTISADKSISTAYLQWSSLKASDTAMYYCARDNEYSDSYFDVWGQGTLVTVSS VL: DIVLTQSPATLSLSPGERATLSCRASQIVSSYLAWYQQKPGQAPRLLIYDASSRATGIPARFSGSGSGTDFTLTISSLEPEDFAVYYCQQSEQVPTTFGQGTKVEIKR | no binding | no binding | 400 | 2.43 | – | 96 | 9
MOR12760 (antibody, V domains shown, Tested as human-mouse chimeric IgG2a (human variable, mouse constant regions); Potential N-linked glycosylation sites were removed by site-directed mutagenesis) VH: EVQLVQSGAEVKKPGESLKISCKGSGYSFNNYWIAWVRQMPGKGLEWMGFIYPSNSATQYSPSFQGQVTISADKSISTAYLQWSSLKASDTAMYYCARDNEYSDSYFDVWGQGTLVTVSS VL: not shown | no binding | no binding | 270 | 35.3 | – | – | 122
MOR12761 (antibody, V domains shown, Tested as human-mouse chimeric IgG2a (human variable, mouse constant regions); Potential N-linked glycosylation sites were removed by site-directed mutagenesis) VH: EVQLVQSGAEVKKPGESLKISCKGSGYSFNNYWIAWVRQMPGKGLEWMGFIYPSNSATQYSPSFQGQVTISADKSISTAYLQWSSLKASDTAMYYCARDNEYSDSYFDVWGQGTLVTVSS VL: DIVLTQSPATLSLSPGERATLSCRASQIVSSYLAWYQQKPGQAPRLLIYDASSRATGIPARFSGSGSGTDFTLTISSLEPEDFATYYCQQSNGWLPTFGQGTKVEIKR | no binding | no binding | 360 | 1.23 | – | 85 | 24
MOR12758 (antibody, V domains shown, Tested as human-mouse chimeric IgG2a (human variable, mouse constant regions); Potential N-linked glycosylation sites were removed by site-directed mutagenesis) VH: EVQLVQSGAEVKKPGESLKISCKGSGYSFTDYWISWVRQMPGKGLEWMGAIDPTDSYTRYSPSFQGQVTISADKSISTAYLQWSSLKASDTAMYYCARWYTSHPYYEGRYPMDVWGQGTLVTVSS VL: DIALTQPASVSGSPGQSITISCTGTSSDVGHYNYVSWYQQHPGKAPKLMIYGVTKRPSGVSNRFSGSKSGNTASLTISGLQAEDEADYYCASADEWPTLHVFGGGTKLTVLG | – | – | – | – | no binding | – | –
MOR12755 (antibody, V domains shown, Tested as human-mouse chimeric IgG2a (human variable, mouse constant regions); Potential N-linked glycosylation sites were removed by site-directed mutagenesis) VH: QVQLQQSGPGLVKPSQTLSLTCAISGDSVSSNSAAWNWIRQSPSRGLEWLGKTYYRSTWSNDYAESVKSRITINPDTSKNQFSLQLNSVTPEDTAVYYCAREMDSLTRSASSIAFDYWGQGTLVTVSS VL: DIELTQPPSVSVSPGQTASITCSGDNLREHYVHWYQQKPGQAPVLVIYDDTERPSGIPERFSGSNSGNTATLTISGTQAEDEADYYCATRDWSNVVFGGGTKLTVLG | – | – | – | – | no binding | – | –
MOR12740 (antibody, V domains shown, Tested as human-mouse chimeric IgG2a (human variable, mouse constant regions); Potential N-linked glycosylation sites were removed by site-directed mutagenesis) VH: QVQLVQSGAEVKKPGSSVKVSCKASGGTFSIYAISWVRQAPGQGLEWMGGIIPILGIANYAQKFQGRVTITADESTSTAYMELSSLRSEDTAVYYCARDATHSYYHDYWGQGTLVTVSS VL: DIALTQPASVSGSPGQSITISCTGTSSDVGSYETVSWYQQHPGKAPKVMIYEVSDRPSGVSNRFSGSKSGNTASLTISGLQAEDEADYYCGSFAHWGSWVFGGGTKLTVLG | no binding | no binding | 1140 | – | – | 170 | 3490
MOR12751 (antibody, V domains shown, Tested as human-mouse chimeric IgG2a (human variable, mouse constant regions); Potential N-linked glycosylation sites were removed by site-directed mutagenesis) VH: QVQLQQSGPGLVKPSQTLSLTCAISGDSVSSNSAAWNWIRQSPSRGLEWLGVIYYRSKWYINYADSVKSRITINPDTSKNQFSLQLNSVTPEDTAVYYCAREGIVGGWFAYWGQGTLVTVSS VL: DIELTQPPSVSVSPGQTASITCSGDKLGSKIAHWYQQKPGQAPVLVIYDDNERPSGIPERFSGSNSGNTATLTISGTQAEDEADYYCQSWDYLSWSVVFGGGTKLTVL | no binding | no binding | 390 | 3.75 | – | – | 160
